Drawing on publication PMC7010293, this text covers stoichiometry N for seven substances.

Values joined by “and” are separate entries in the source; they are usually repeats but may differ in a detail not shown here. Equal entries are not always repeated.

Holding throughout (test): SDS-PAGE under unheated, non-reducing conditions with Western blot
In assay [1] the target is recombinant non-structural protein 1 (rNS1) of Dengue virus serotype 1, 6xHis-tagged (Dengue virus 1, Hawaii A strain).
In assay [2] the target is recombinant non-structural protein 1 (rNS1) of West Nile virus, RQ10NK, 6xHis-tagged (West Nile virus, NY99 strain).
The target of assay [3] is recombinant non-structural protein 1 (rNS1) of Tick-borne encephalitis virus, 6xHis-tagged (Tick-borne encephalitis virus, Neudoerfl strain).
In assay [4] the target is recombinant non-structural protein 1 (rNS1) of Zika virus, 6xHis-tagged (Zika virus, SPH2015 strain).
Assay [5] addresses recombinant non-structural protein 1 (rNS1) of Dengue virus serotype 2, 6xHis-tagged (Dengue virus 2, New Guinea C strain).
Assay [6] has as its target recombinant non-structural protein 1 (rNS1) of Dengue virus serotype 3, 6xHis-tagged (Dengue virus 3, Sri Lanka strain).
The target in assay [7] is recombinant non-structural protein 1 (rNS1) of Dengue virus serotype 4, 6xHis-tagged (Dengue virus 4, TC25 strain).

Take “recombinant non-structural protein 1 (rNS1) of Dengue virus serotype 1, 6xHis-tagged (natural protein)”: the stoichiometry N in assay [1] turned out to be 2.
In the case of “recombinant non-structural protein 1 (rNS1) of West Nile virus, RQ10NK, 6xHis-tagged (natural protein)”, the stoichiometry N in assay [2] was determined as 2.
Turning to “recombinant non-structural protein 1 (rNS1) of Tick-borne encephalitis virus, 6xHis-tagged (natural protein)”, the stoichiometry N in assay [3] was 2 and 6.
For the substance “recombinant non-structural protein 1 (rNS1) of Zika virus, 6xHis-tagged (natural protein)”, the stoichiometry N in assay [4] was determined as 2.
For “recombinant non-structural protein 1 (rNS1) of Dengue virus serotype 2, 6xHis-tagged (natural protein)”, the stoichiometry N in assay [5] was determined as 2.
Take “recombinant non-structural protein 1 (rNS1) of Dengue virus serotype 3, 6xHis-tagged (natural protein)”: the stoichiometry N in assay [6] was found to be 2.
For the substance “recombinant non-structural protein 1 (rNS1) of Dengue virus serotype 4, 6xHis-tagged (natural protein)”, the stoichiometry N in assay [7] was 2.
